Experimental data published in US20040023883A1 (published 2004).

Key:
[1] = target: T1, IGF-I P2A on phage (G1S-A70V template) (human; bacteriophage M13); experiment: competitive phage ELISA
T1 construct: not shown: M13 gene III fragment (residues 249-406), the display carrier, and its junction to IGF-I
Source text: (§1) Phage particles were harvested and resuspended in PBS buffer as described in Lowman, H. B., “Phage Display of Peptide Libraries on Protein Scaffolds,” in Cabilly, S. (ed.), Combinatorial Peptide Library Protocols (Humana Press Inc.: Totowa, N.J., 1998), pp. 249-264. Then phage concentrations were normalized to yield a maximal ELISA signal of 0.2-0.4 for each mutant (Lowman, in Cabilly, S. (ed.), supra). […] After blocking, the plates containing immobilized target were washed with 0.05% TWEEN™/PBS buffer and subsequently incubated with 80 μl/well of the premixed phage-competitor solutions for 1 hour at room temperature. After washing, bound phage was detected with 80 μl/well of a solution containing a primary rabbit anti-phage polyclonal antibody and a secondary goat anti-rabbit monoclonal antibody-horseradish peroxidase conjugate in 0.5% TWEEN 20™/PBS. o-Phenylenediamine (Sigma) and tetramethylbenzidine (Kirkegaard and Perry) were used as chromogenic substrates, resulting in product detection at 492 and 450 nm, respectively. IC₅₀ values were determined by fitting the binding data to a generic saturation curve (Lowman, in Cabilly, S. (ed.), supra).
(§2) At least two different clones of every mutant were tested.

[2] = target: IGF-I S1A on phage (G1S-A70V template) (human; bacteriophage M13); experiment: competitive phage ELISA
Source text: as §1, §2

[3] = target: T2, IGF-I F49A on phage (G1S-A70V template) (human; bacteriophage M13); experiment: competitive phage ELISA; ratio against IGFBP-3; settings: remark: other sources report otherwise
T2 chain: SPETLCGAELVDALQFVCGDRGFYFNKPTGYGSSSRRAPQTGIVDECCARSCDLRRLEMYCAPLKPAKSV

[4] = target: T2, IGF-I F49A on phage (G1S-A70V template) …; experiment: competitive phage ELISA; settings: remark: other sources report otherwise

- IC50 [1]: 11 nM
- IC50 [2]: 5.2 nM
- relative specificity (relative IC50 IGFBP-1/relative IC50 IGFBP-3) [3]: > 28
- relative IC50 (IC50 mut/IC50 G1S-A70V) [4]: > 100
B1: human IGFBP-1 (other, UniProt P08833 26-259, looked up)
chain: APWQCAPCSAEKLALCPPVSASCSEVTRSAGCGCCPMCALPLGAACGVATARCARGLSCRALPGEQQPLHALTRGQGACVQESDASAPHAAEAGSPESPESTEITEEELLDNFHLMAPSEEDHSILWDAISTYDGSKALHVTNIKKWKEPCRIELYRVVESLAKAQETSGEEISKFYLPNCNKNGFYHSRQCETSMDGEAGLCWCVYPWNGKRIPGSPEIRGDPNCQIYFNVQN
notes: Recombinant secreted protein
